# The Immune Epitope Database (IEDB)
# What was measured:
# HLA-A*29:02 = assay: IEDB peptide-MHC binding, purified MHC/direct/fluorescence; filed as Kd, often an IC50 or EC50 that approximates it; ≥ and ≤ were set here for values at or beyond the usual limits of such assays
# HLA-A*02:11 = assay: as above
# HLA-B*57:01 [1] = assay: as above; settings: source organism: Salmonella enterica subsp. enterica serovar Typhimurium str. LT2
# HLA-B*46:01 [2] = assay: as above
# HLA-A*23:01 = assay: as above; settings: source organism: Salmonella enterica subsp. enterica serovar Typhimurium str. LT2
# HLA-A*02:19 = assay: as above
# HLA-B*51:01 [3] = assay: as above
# HLA-A*02:01 [4] = assay: as above
# HLA-A*26:01 = assay: as above
# HLA-A*69:01 [5] = assay: as above; settings: source organism: Salmonella enterica subsp. enterica serovar Typhimurium str. LT2
# HLA-A*02:12 = assay: as above
# HLA-B*15:01 [6] = assay: as above
# HLA-B*15:17 = assay: as above; settings: source organism: Salmonella enterica subsp. enterica serovar Typhimurium str. LT2
# HLA-A*03:01 [7] = assay: as above
# HLA-A*68:02 = assay: as above
# HLA-A*02:03 = assay: as above
# HLA-A*24:03 = assay: as above
# HLA-B*27:03 [8] = assay: as above
# HLA-A*02:16 = assay: as above
# HLA-B*18:01 = assay: as above
# HLA-C*03:03 = assay: as above
# HLA-B*39:01 [9] = assay: as above; settings: source organism: Mycobacterium tuberculosis str. Haarlem
# HLA-B*51:01 [10] = assay: IEDB peptide-MHC binding, purified MHC/competitive/fluorescence; filed as Kd, often an IC50 or EC50 that approximates it; ≥ and ≤ were set here for values at or beyond the usual limits of such assays
# HLA-A*02:01 [11] = assay: as above
# HLA-B*58:01 = assay: as above; settings: source organism: Yersinia pestis Nepal516
# HLA-A*01:01 [12] = assay: as above; settings: source organism: Yersinia pestis Nepal516
# HLA-C*08:02 = assay: IEDB peptide-MHC binding, purified MHC/direct/fluorescence; filed as Kd, often an IC50 or EC50 that approximates it; ≥ and ≤ were set here for values at or beyond the usual limits of such assays
# HLA-B*45:06 = assay: IEDB peptide-MHC binding, purified MHC/competitive/fluorescence; filed as Kd, often an IC50 or EC50 that approximates it; ≥ and ≤ were set here for values at or beyond the usual limits of such assays
# HLA-B*83:01 = assay: as above; settings: source organism: Salmonella enterica subsp. enterica serovar Typhi
# HLA-B*15:01 [13] = assay: as above; settings: source organism: Salmonella enterica subsp. enterica serovar Typhi
# HLA-C*04:01 = assay: as above
# HLA-A*03:01 [14] = assay: as above; settings: source organism: Salmonella enterica subsp. enterica serovar Typhi
# HLA-B*15:42 = assay: as above
# HLA-A*68:23 = assay: as above; settings: source organism: Salmonella enterica subsp. enterica serovar Typhi
# HLA-A*31:01 = assay: as above; settings: source organism: Salmonella enterica subsp. enterica serovar Typhi
# HLA-B*07:02 = assay: IEDB peptide-MHC binding, purified MHC/direct/fluorescence; filed as Kd, often an IC50 or EC50 that approximates it; ≥ and ≤ were set here for values at or beyond the usual limits of such assays; settings: source organism: Orthohantavirus hantanense
# HLA-A*02:01 [15] = assay: IEDB peptide-MHC binding, purified MHC/competitive/fluorescence; ≥ and ≤ were set here for values at or beyond the usual limits of such assays; settings: source organism: Sudan ebolavirus
# HLA-B*15:01 [16] = assay: as above; settings: source organism: Sudan ebolavirus
# HLA-A*01:01 [17] = assay: as above; settings: source organism: Sudan ebolavirus
# HLA-B*57:01 [18] = assay: IEDB peptide-MHC binding, purified MHC/competitive/fluorescence; filed as Kd, often an IC50 or EC50 that approximates it; ≥ and ≤ were set here for values at or beyond the usual limits of such assays; settings: source organism: Sudan ebolavirus
# HLA-B*46:01 [19] = assay: as above; settings: source organism: Sudan ebolavirus
# HLA-A*69:01 [20] = assay: as above; settings: source organism: Sudan ebolavirus
# HLA-B*39:01 [21] = assay: as above; settings: source organism: Sudan ebolavirus
# HLA-B*27:03 [22] = assay: as above; settings: source organism: Sudan ebolavirus
# [23] = source organism: Salmonella enterica subsp. enterica serovar Typhimurium str. LT2
# [24] = source organism: Mycobacterium tuberculosis str. Haarlem
# [25] = source organism: Yersinia pestis Nepal516
# [26] = source organism: Salmonella enterica subsp. enterica serovar Typhi
# [27] = source organism: Hantaan virus 76-118
# [28] = source organism: Sudan ebolavirus
sequence,measurement,setting,value
FKYDSTKPL,Kd,HLA-A*29:02; [23],≥ 20 µM
same,Kd,HLA-A*02:11; [23],≥ 20 µM
same,Kd,HLA-B*57:01 [1],≥ 20 µM
same,Kd,HLA-B*46:01 [2]; [23],≥ 20 µM
same,Kd,HLA-A*23:01,≥ 20 µM
same,Kd,HLA-A*02:19; [23],≥ 20 µM
same,Kd,HLA-B*51:01 [3]; [23],≥ 20 µM
same,Kd,HLA-A*02:01 [4]; [23],≥ 20 µM
same,Kd,HLA-A*26:01; [23],≥ 20 µM
same,Kd,HLA-A*69:01 [5],≥ 20 µM
same,Kd,HLA-A*02:12; [23],≥ 20 µM
same,Kd,HLA-B*15:01 [6]; [23],≥ 20 µM
same,Kd,HLA-B*15:17,≥ 20 µM
same,Kd,HLA-A*03:01 [7]; [23],≥ 20 µM
same,Kd,HLA-A*68:02; [23],≥ 20 µM
same,Kd,HLA-A*02:03; [23],≥ 20 µM
same,Kd,HLA-A*24:03; [23],≥ 20 µM
same,Kd,HLA-B*27:03 [8]; [23],≥ 20 µM
same,Kd,HLA-A*02:16; [23],≥ 20 µM
same,Kd,HLA-B*18:01; [23],≥ 20 µM
LAYARGQAM,Kd,HLA-C*03:03; source organism: Human herpesvirus 4 strain B95-8,≤ 0.001 µM
MAVTAAPYI,Kd,HLA-A*29:02; [24],≥ 20 µM
same,Kd,HLA-A*02:11; [24],≥ 20 µM
same,Kd,HLA-B*46:01 [2]; [24],≥ 20 µM
same,Kd,HLA-A*02:19; [24],≥ 20 µM
same,Kd,HLA-B*51:01 [3]; [24],0.103 µM
same,Kd,HLA-A*02:01 [4]; [24],≥ 20 µM
same,Kd,HLA-A*26:01; [24],≥ 20 µM
same,Kd,HLA-A*02:12; [24],≥ 20 µM
same,Kd,HLA-B*39:01 [9],≥ 20 µM
same,Kd,HLA-B*15:01 [6]; [24],≥ 20 µM
same,Kd,HLA-A*03:01 [7]; [24],≥ 20 µM
same,Kd,HLA-A*02:03; [24],≥ 20 µM
same,Kd,HLA-A*24:03; [24],≥ 20 µM
same,Kd,HLA-B*27:03 [8]; [24],≥ 20 µM
same,Kd,HLA-A*02:16; [24],≥ 20 µM
same,Kd,HLA-B*18:01; [24],≥ 20 µM
MTSELAALI,Kd,HLA-B*51:01 [10]; [25],≥ 20 µM
same,Kd,HLA-A*02:01 [11]; [25],0.0073 µM
same,Kd,HLA-B*58:01,0.0225 µM
same,Kd,HLA-A*01:01 [12],≥ 20 µM
same,Kd,HLA-C*08:02; [25],0.415 µM
STFDLYVYR,Kd,HLA-B*45:06; [26],≥ 5 µM
same,Kd,HLA-B*83:01,≥ 5 µM
same,Kd,HLA-B*15:01 [13],≥ 20 µM
same,Kd,HLA-C*04:01; [26],≥ 5 µM
same,Kd,HLA-A*03:01 [14],3.21 µM
same,Kd,HLA-B*15:42; [26],≥ 5 µM
same,Kd,HLA-A*68:23,0.0139 µM
same,Kd,HLA-A*31:01,0.0243 µM
TPGRYRTAV,Kd,HLA-B*45:06; [27],≥ 5 µM
same,Kd,HLA-C*04:01; [27],≥ 5 µM
same,Kd,HLA-B*15:42; [27],≥ 5 µM
same,Kd,HLA-B*51:01 [3]; source organism: Orthohantavirus hantanense,≥ 20 µM
same,Kd,HLA-B*07:02,≤ 0.001 µM
YISPIFIPM,Kd,HLA-C*03:03; source organism: Rickettsia sibirica 246,≤ 0.001 µM
YTENTSSYY,IC50,HLA-A*02:01 [15],≥ 213 µM
same,IC50,HLA-B*15:01 [16],23.1 µM
same,IC50,HLA-A*01:01 [17],0.927 µM
same,Kd,HLA-B*57:01 [18],≥ 20 µM
same,Kd,HLA-B*46:01 [19],≥ 20 µM
same,Kd,HLA-B*51:01 [10]; [28],≥ 20 µM
same,Kd,HLA-A*02:01 [11]; [28],≥ 20 µM
same,Kd,HLA-A*69:01 [20],≥ 20 µM
same,Kd,HLA-B*39:01 [21],≥ 20 µM
same,Kd,HLA-B*27:03 [22],≥ 20 µM
same,Kd,HLA-A*02:11; [28],≥ 20 µM
same,Kd,HLA-A*02:19; [28],≥ 20 µM
same,Kd,"HLA-A*26:01; source organism: Sudan virus - Boniface, Sudan,1976",0.007 µM
same,Kd,HLA-A*02:12; [28],≥ 20 µM
same,Kd,HLA-A*03:01 [7]; [28],≥ 20 µM
same,Kd,HLA-A*68:02; [28],≥ 20 µM
same,Kd,HLA-A*02:03; [28],≥ 20 µM
same,Kd,HLA-A*24:03; [28],≥ 20 µM
same,Kd,HLA-A*02:16; [28],≥ 20 µM
same,Kd,HLA-C*08:02; [28],≥ 20 µM
